Sequences and labels used below:
B1: SLAM peptide (cytoplasmic tail of SLAM, 77 aa, singly phosphorylated) (peptide)
peptide: QLRRRGKTNHYQTTVEKKSLTIYAQVQKPGPLQKKLDSFPAQDPCTTIYVAATEPVPESVQETNSITVYASVTLPES
modifications: biotin on the N-terminus; phosphotyrosine in the ITSM (position 327 in the native sequence)
notes: cytoplasmic tail of SLAM, 77 aa; only the last tyrosine (327) is phosphorylated; source: synthetic peptide (Peptide Protein Research)
B2: Human SHP-1 with an N-terminal 6x His tag (enzyme)
chain: not shown

Test [1] has as its target B2. In words: SPR; biotinylated peptide on streptavidin-coupled CM5 chip (25-100 RU), SHP-1 injected 45 s at 10 uL/min; Biacore T200; 37°C; 10 mM HEPES pH 7.4, 150 mM NaCl, 3 mM EDTA, 0.05% Tween 20, 1 mM dithiothreitol; constants from the fit of the extended MPDPDE model. The conditions noted are these: both partners purified. (In SPR one partner is held on a chip, and binding of the other changes the refractive index at the surface.)

In test [2] the target is B1. In words: cell-based or functional assay.

With B1, in test [1], binding was put at a Kd of 130 µM; the off-rate constant (koff) – broadly, the rate constant with which the complex falls apart – amounted to 1.7 s⁻¹; the kon (usually the rate constant with which the complex forms) is 20000 M⁻¹ s⁻¹.

B2: the “ratio kcat(tethered)/kcat(solution) from the SPR assay (allosteric activation of SHP-1)” value in test [2] was 6.2 fold.

For the origin of these results see article PMC8204385 (Biophysical Journal, 2021).
